US20210277098A1 (MITSUBISHI TANABE PHARMA, published 2021)
No end group written: not given here. *: point of attachment. Biotin = O=C1N[C@H]2[C@H](CS[C@H]2CCCCC(=O)*)N1

Columns and labels:
[1] = target: Human RGMa protein (R&D systems, 2459-RM) (human) (UniProt Q96B86); assay: SPR (Proteon XPR36), antigen amine-coupled on a GLC chip, antibody as analyte
[2] = target: T1, mouse RGMa protein (R&D systems, 2458-RG) (mouse) (UniProt Q6PCX7); assay: as above
T1 sequence: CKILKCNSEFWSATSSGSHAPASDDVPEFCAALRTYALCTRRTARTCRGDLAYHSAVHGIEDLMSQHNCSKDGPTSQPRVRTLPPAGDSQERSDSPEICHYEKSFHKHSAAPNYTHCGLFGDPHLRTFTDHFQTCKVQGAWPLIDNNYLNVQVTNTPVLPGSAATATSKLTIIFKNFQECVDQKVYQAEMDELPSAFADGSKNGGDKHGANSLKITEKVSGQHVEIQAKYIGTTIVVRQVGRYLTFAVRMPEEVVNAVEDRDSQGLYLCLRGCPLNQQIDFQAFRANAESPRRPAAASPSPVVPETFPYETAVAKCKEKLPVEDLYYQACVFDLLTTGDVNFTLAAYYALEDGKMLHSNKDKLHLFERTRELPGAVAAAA

[3] = target: T2, Human RGMa protein (R&D systems, 2459-RM) (human, UniProt Q96B86 48-422, limits assumed); assay: as above
T2 construct: Bought protein; also called Recombinant RGMa protein
T2 sequence: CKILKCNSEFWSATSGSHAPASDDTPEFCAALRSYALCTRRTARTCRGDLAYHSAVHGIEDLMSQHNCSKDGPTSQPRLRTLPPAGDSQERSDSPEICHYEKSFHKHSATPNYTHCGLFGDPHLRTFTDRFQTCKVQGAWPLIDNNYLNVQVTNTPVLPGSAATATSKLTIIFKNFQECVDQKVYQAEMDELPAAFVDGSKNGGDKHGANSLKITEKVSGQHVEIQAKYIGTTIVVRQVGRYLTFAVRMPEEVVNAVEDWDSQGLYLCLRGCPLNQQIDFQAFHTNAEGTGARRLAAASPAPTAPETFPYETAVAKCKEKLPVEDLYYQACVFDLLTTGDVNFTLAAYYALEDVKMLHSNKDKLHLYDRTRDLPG
Procedure: (§1) The affinity of the test antibodies (r116A3 and r70E4) and r5F9 (Comparative Example) for RGMa protein were measured by the surface plasmon resonance (SPR) method using Proteon XPR36 (Bio-Rad).
(§2) Human RGMa protein (R&D Systems, 2459-RM), the C-terminal domain of human RGMa protein (prepared in Example 1) or mouse RGMa protein (R&D Systems, 2458-RG) diluted to 10 μg/mL with 10 mM acetate buffer (pH4.5) was immobilized on a GLC sensor chip by amine coupling method.

[4] = target: T3, C-terminal domain of human RGMa protein (prepared in Example 1), Pro 169 to Gly 422 with C-terminal histidine … (human, UniProt Q96B86 169-422); assay: as above
T3 construct: Secreted from CHO cells and purified on a nickel column; also called Human RGMa C-terminal domain; recombinant human RGMa protein; not shown: histidine tag at the C terminus
T3 sequence: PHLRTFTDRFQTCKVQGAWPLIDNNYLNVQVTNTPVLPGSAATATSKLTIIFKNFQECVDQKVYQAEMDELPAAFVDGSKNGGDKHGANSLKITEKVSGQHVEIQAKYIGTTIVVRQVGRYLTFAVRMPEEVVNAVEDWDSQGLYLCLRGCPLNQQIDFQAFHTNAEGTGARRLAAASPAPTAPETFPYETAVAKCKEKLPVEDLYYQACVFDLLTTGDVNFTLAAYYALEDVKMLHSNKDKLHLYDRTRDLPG
Procedure: as §1, §2

[5] = target: T1, mouse RGMa protein (R&D systems, 2458-RG) (mouse); assay: SPR (Proteon XPR36), ratio of Kd values against r5F9
[6] = target: T4, biotinylated SGSG-spacer peptide of human RGMa Glu 298 to Asp 308 (human); assay: peptide scanning ELISA, biotinylated peptides on avidin-coated plates
T4 construct: One of 83 peptides of 11 residues, immobilised on avidin-coated plates
T4 peptide: Biotin-SGSGEEVVNAVEDWD
Procedure: (§3) Epitopes to which the antibodies bind were determined by the peptide scanning method. A total of 83 kinds of peptides were synthesized by fusing the N-terminal side of the amino acid sequences consisting of 11 consecutive residues shifted by 3 residues contained in Arg 172 to Ala 424 of the human RGMa protein (SEQ ID NO: 1 in Sequence Listing) with a spacer sequence (SGSG) with biotinylated N terminus (SEQ ID NO: 46 in Sequence Listing). After immobilizing the peptides on avidin-coated plates, the test antibodies (B5.116A3 and B5.70E4) were allowed to react. Subsequently, a peroxidase-labeled rabbit anti-mouse Ig antibody (Dako, P026002) was allowed to react. After a substrate solution was added and color developed for a certain time, the absorbance was measured with a plate reader.

[7] = target: T5, biotinylated SGSG-spacer peptide of human RGMa Lys 367 to Ala 377 (human); assay: as above
T5 construct: One of 83 peptides of 11 residues, immobilised on avidin-coated plates
T5 peptide: Biotin-SGSGKLPVEDLYYQA
Procedure: as §3

[8] = target: T6, biotinylated SGSG-spacer peptide of human RGMa Val 301 to Gly 311 (human); assay: as above
T6 construct: One of 83 peptides of 11 residues, immobilised on avidin-coated plates
T6 peptide: Biotin-SGSGVNAVEDWDSQG
Procedure: as §3

[9] = target: T7, biotinylated SGSG-spacer peptide of human RGMa Asn 322 to Thr 332 (human); assay: as above
T7 construct: One of 83 peptides of 11 residues, immobilised on avidin-coated plates
T7 peptide: Biotin-SGSGNQQIDFQAFHT
Procedure: as §3

[10] = target: T8, biotinylated SGSG-spacer peptide of human RGMa Ile 325 to Glu 335 (human); assay: as above
T8 construct: One of 83 peptides of 11 residues, immobilised on avidin-coated plates
T8 peptide: Biotin-SGSGIDFQAFHTNAE
Procedure: as §3

recombinant rat mouse chimeric antibody r5F9 (Comparative Example)
Kd [1]: 1.59 nM | Kd [2]: 8.98 nM

B1: recombinant mouse antibody r116A3 (antibody, mouse IgG2b, kappa, V domains shown)
VH: EVKLEESGGGLVQPGGSMKLSCAASGFTFSDAWMDWVRQSPEKGLEWVAEIRSKANNHATYYAESVKGRFTISRDDSKRSVYLQMNNLRAEDTGIYYCTRRDGAYWGQGTLVTVSA
VL: DIQMTQTTSSLSASLGDRVTISCRASQDISSYLNWYQQKPDGTVKLLIYYTSRLHSGVPSRFSGSGSGTDYSLTISNLEQEDIATYFCQQLNTLPWTFGGGTKLEIKR
notes: Recombinant form of B5.116A3 expressed in HEK293F cells
Kd [2]: 0.201 nM | Kd [3]: 0.0487 nM | Kd [4]: 0.0568 nM | times stronger binding than r5F9 [5]: 44 times

B2: recombinant mouse antibody r70E4 (antibody, mouse IgG2b, kappa, V domains shown)
VH: DVKLQESGPGLVKPSQSLSLTCSVTGYSITTSYYWNWIRQFPGNKLEWMGYISYDGTNNYNPSLKNRISITRDTSKNQFFLRLNSVTTEDTATYYCAGSFGYSQGTLVTVSA
VL: DVVMTQTPLSLPVSLGDQASISCRSSQSLVHSNGNTYLHWYLQRPGQSPKLLIYKVSNRFSGVPDRFSGSGSGTDFTLKISRVEAEDLGLYFCSQSTHVPYTFGGGTKLEIKR
notes: Recombinant form of B5.70E4 expressed in HEK293F cells
Kd [2]: 174 nM | Kd [3]: 2.43 nM | Kd [4]: 1.12 nM

B3: mouse anti-human RGMa monoclonal antibody B5.116A3 (antibody, mouse IgG2b, kappa, V domains shown)
VH: B1 VH
VL: B1 VL
binding result [6]: binds | binding result [7]: binds | binding result [8]: binds | binding result [9]: binds | binding result [10]: binds
